Laboratory results: patent US20220347309A1 (ADC THERAPEUTICS, published 2022)

Target: T1, CD25 on human anaplastic large cell lymphoma Karpas-299 cells (human, UniProt P01589 22-272)
T1 construct: whole, on cells; Endogenous antigen on the cell line
T1 sequence (looked up): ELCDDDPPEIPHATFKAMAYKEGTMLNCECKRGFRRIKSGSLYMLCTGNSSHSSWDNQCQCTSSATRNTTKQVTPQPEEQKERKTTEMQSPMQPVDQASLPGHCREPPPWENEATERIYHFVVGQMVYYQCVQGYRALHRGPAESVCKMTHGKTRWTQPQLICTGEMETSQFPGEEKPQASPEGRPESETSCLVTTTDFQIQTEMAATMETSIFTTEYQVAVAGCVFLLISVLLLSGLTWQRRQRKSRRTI
Test: flow cytometry, serial dilution of antibody on Karpas-299 wt, ADCR and PBDR cells, Alexa Fluor 488 anti-human Fc secondary
Procedure: The cells were then washed and incubated with a F(ab′)2-Goat anti-Human IgG Fc Secondary Antibody conjugated to Alexa Fluor 488. After incubation for 1 hour on ice in the dark the cells were washed and run on a Fortessa X20 flow cytometer, and the mean fluorescence intensity (MFI) determined using the B530/30 laser/filter.

- binding result: binds
B1: HuMax-TAC mAb (antibody, V domains shown)
VH: QVQLVQSGAEVKKPGSSVKVSCKASGGTFSRYIINWVRQAPGQGLEWMGRIIPILGVENYAQKFQGRVTITADKSTSTAYMELSSLRSEDTAVYYCARKDWFDYWGQGTLVTVSS
VL: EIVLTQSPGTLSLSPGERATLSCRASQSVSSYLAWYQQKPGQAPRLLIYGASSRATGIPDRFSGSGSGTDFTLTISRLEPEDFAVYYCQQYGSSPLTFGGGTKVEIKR
notes: also called AB12; CD25 antibody
